Here are results for 1 molecule from US20230257448A1 (TWIST BIOSCIENCE, published 2023).

For the assay, the target named is T1, S1 monomer of SARS-CoV-2 Omicron (SARS-CoV-2, UniProt P0DTC2 16-685).
T1 construct: domain: S1
Put plainly: SPR (Carterra LSA, antibody amine-coupled to the chip, spike protein as analyte).

B1: 3-31 (Fc fusion)
chain: EVQLVESGGGLVQPGGSLRLSCAASGSTFSINAMGWFRQAPGKEREFVAGITSSGGYTNYADSVKGRFTISADNSKNTAYLQMNSLKPEDTAVYYCAADGVPEYSDYASGPVWGQGTLVTVSS
B1: the binding result is “no binding”.
